Data from patent US20240400711A1 (SOUND BIOPHARMACEUTICALS, published 2024).
Where two headings read alike, the source gives them in different places. Values belong to the binder of their own block, whether it stands above or below them.

Experiments:
[1] = target: T1, CD38 on CD38-positive cells (human, UniProt P28907 1-300); experiment: cell-based or functional assay
FcγRIIIa (V176) = FcγRIIIa (V176) (UniProt P08637 17-208, limits assumed); experiment: kinetics, FcγRIIIa as ligand, antibody as analyte
FcγRIIIa(F176) = FcγRIIIa(F176) (UniProt P08637 17-208, limits assumed); experiment: kinetics, FcγRIIIa as ligand, antibody as analyte
[2] = target: T1, CD38 on CD38-positive cells; experiment: flow cytometry on NCI-H211 cells (small cell lung cancer), MFI against antibody concentration [table, row NCI-H211]
[3] = target: T2, rhesus macaque erythrocytes (rhesus macaque); experiment: flow cytometry on rhesus macaque erythrocytes
T2 chain: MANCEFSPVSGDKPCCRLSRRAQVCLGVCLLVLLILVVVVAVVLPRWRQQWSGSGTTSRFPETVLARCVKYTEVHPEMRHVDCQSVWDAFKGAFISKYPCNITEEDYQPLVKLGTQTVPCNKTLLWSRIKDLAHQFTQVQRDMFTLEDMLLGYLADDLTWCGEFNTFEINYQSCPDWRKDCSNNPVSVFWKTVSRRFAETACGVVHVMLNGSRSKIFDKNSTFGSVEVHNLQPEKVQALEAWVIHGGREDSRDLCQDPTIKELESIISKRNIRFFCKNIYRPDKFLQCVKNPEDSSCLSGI

[4] = target: T3, mouse CD38 antigen protein (mouse, UniProt P56528 45-304, limits assumed); experiment: ELISA on coated mouse CD38 antigen (1 µg/mL) [panel Mouse CD38]
T3 construct: also called mouse antigen
T3 sequence (looked up): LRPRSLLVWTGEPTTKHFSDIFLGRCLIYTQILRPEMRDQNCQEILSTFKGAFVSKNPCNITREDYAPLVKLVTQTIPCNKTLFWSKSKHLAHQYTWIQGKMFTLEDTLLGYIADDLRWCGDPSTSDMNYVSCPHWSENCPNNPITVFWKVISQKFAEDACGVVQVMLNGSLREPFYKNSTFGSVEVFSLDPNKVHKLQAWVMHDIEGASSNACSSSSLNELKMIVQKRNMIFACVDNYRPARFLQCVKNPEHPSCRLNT
Experimental: (§1) The cross-reactivity of the antibodies between CD38 antigen proteins of different species was measured using Elisa. Coating was performed with CD38 antigens of different species (human, cynomolgus, mouse, and rat) (1 μg/mL, 50 mL/well), and incubation was performed overnight at 2-8° C.

rat CD38 antigen protein = target: T4, rat CD38 antigen protein (rat, UniProt Q64244 45-303, limits assumed); experiment: ELISA on coated rat CD38 antigen (1 µg/mL) [panel Rat CD38]
T4 construct: also called rat antigen
T4 sequence (looked up): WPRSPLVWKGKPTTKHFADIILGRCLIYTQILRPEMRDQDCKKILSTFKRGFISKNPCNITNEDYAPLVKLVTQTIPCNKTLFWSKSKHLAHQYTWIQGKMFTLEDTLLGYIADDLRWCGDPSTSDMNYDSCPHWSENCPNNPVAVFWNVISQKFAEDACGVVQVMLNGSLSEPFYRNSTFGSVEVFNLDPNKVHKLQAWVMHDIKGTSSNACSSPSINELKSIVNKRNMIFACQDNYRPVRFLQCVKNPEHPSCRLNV
Experimental: as §1

[5] = target: T5, recombinant extracellular domain of CD38 (human, UniProt P28907 43-300); experiment: Biacore SPR
T5 construct: also called CD38 extracellular domain; AtaGenix ATMP00140HU

[6] = target: T5, recombinant extracellular domain of CD38; experiment: Biacore SPR; remark: listed apart in the source
[7] = target: T1, CD38 on CD38-positive cells; experiment: flow cytometry on CD38-positive H211 cells
[8] = target: T1, CD38 on CD38-positive cells; experiment: flow cytometry on SU-DHL-6 cells (B cell lymphoma), MFI against antibody concentration [table, row SU-DHL-6]

FcγRIIIa (V176), sequence (P08637 17-208 F176V limits assumed): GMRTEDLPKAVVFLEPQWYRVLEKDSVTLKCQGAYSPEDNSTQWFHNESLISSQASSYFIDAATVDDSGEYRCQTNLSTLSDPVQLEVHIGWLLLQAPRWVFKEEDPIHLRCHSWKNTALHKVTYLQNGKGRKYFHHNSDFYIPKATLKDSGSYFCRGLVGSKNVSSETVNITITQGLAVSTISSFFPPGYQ
FcγRIIIa(F176), sequence (P08637 17-208 limits assumed): as the sequence (P08637 17-208 F176V limits assumed) above, with V160F counted along it

Rate of apoptosis (%), Daudi cells [1]: 40.9%
Rate of apoptosis (%), Raji cells [1]: 7.14%
Rate of apoptosis (%), Romas cells [1]: 64.2%
Rate of apoptosis (%), SU-DHL-6 cells [1]: 21.2%
Kd (FcγRIIIa (V176)): 29.5 nM
koff (FcγRIIIa (V176)): 0.0229 s⁻¹
kon (FcγRIIIa (V176)): 778000 M⁻¹ s⁻¹
Kd (FcγRIIIa(F176)): 19.5 nM
EC50 [2]: 0.555 µg/mL
EC50 [3]: 2 to 5 µg/mL
B1: FTL004-1 (antibody, human IgG1, kappa)
heavy: not shown
light: DIVLTQSPASLAVSPGQRATITCRASESVDNFGITFMHWYQQKPGQPPKLLIYRASNLESGVPARFSGSGSRTDFTLTINPVEANDTANYYCQQSSKDPRTFGQGTKLEIKRTVAAPSVFIFPPSDEQLKSGTASVVCLLNNFYPREAKVQWKVDNALQSGNSQESVTEQDSKDSTYSLSSTLTLSKADYEKHKVYACEVTHQGLSSPVTKSFNRGEC
notes: copies: 2 + 2

binding result [4]: no binding (tested: 300 µg/ml)
binding result (rat CD38 antigen protein): no binding (tested: 300 µg/ml)
Kd [5]: 14.6 nM
koff [5]: 0.000969 s⁻¹
kon [5]: 66100 M⁻¹ s⁻¹
Kd [6]: 2.02 nM
koff [6]: 0.0005 s⁻¹
kon [6]: 248000 M⁻¹ s⁻¹
B2: H2 antibody (antibody, V domains shown)
VH: EVQLQESGAELVRSGASVKMSCKASGYTFTDYNVHWIKQTPGQGLEWIGYFYPRNGATHYNQKFTGKATLTADTSSSTAYIQISSLTSEDSAVYFCARGETPGTFPYWGQGTLVTVSA
VL: DIVLTQSPASLTVSLGQRATISCRASESVDNFGITFMHWYQQKPGQPPKLLIYRASNLESGIPARFSGSGSRTDFTLTIDPVETDDVATYYCQQSSKDPRTFGGGTKLEIK
notes: Murine monoclonal antibody from a BALB/c hybridoma; also called H2 mAb; Hybridoma-2

EC50 [7]: 1.94 µg/mL
EC50 [8]: 0.548 µg/mL
Rate of apoptosis (%), Daudi cells [1]: 10.6%
Rate of apoptosis (%), Raji cells [1]: 5.73%
Rate of apoptosis (%), Romas cells [1]: 9.78%
Rate of apoptosis (%), SU-DHL-6 cells [1]: 10.4%
Kd [5]: 12.2 nM
koff [5]: 0.00363 s⁻¹
kon [5]: 297000 M⁻¹ s⁻¹
Kd [6]: 1.96 nM
koff [6]: 0.000355 s⁻¹
kon [6]: 181000 M⁻¹ s⁻¹
B3: Daratumumab (antibody, V domains shown)
VH: EVQLLESGGGLVQPGGSLRLSCAVSGFTFNSFAMSWVRQAPGKGLEWVSAISGSGGGTYYADSVKGRFTISRDNSKNTLYLQMNSLRAEDTAVYFCAKDKILWFGEPVFDYWGQGTLVTVSS
VL: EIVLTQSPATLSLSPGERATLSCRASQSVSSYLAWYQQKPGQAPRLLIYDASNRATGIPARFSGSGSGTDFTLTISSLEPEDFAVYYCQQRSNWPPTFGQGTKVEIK
